In US20220064281A1 (Ablynx, published 2022):

How the values were obtained:
human TNFα [1] = target: T1, human TNFα (human, UniProt P01375 77-233); assay: cell-based or functional assay
cyno TNFα [2] = target: T2, cyno TNFα (cynomolgus monkey, UniProt P79337 77-233); assay: cell-based or functional assay
cyno IL-23 [3] = target: cyno IL-23 (cynomolgus monkey); assay: cell-based or functional assay
human serum albumin = target: T3, human serum albumin (human, UniProt P02768 25-609); assay: Gyrolab in-solution affinity, 2 h incubation
T3 construct: also called HSA; SA (human)
T3 sequence (P02768 25-609 limits assumed): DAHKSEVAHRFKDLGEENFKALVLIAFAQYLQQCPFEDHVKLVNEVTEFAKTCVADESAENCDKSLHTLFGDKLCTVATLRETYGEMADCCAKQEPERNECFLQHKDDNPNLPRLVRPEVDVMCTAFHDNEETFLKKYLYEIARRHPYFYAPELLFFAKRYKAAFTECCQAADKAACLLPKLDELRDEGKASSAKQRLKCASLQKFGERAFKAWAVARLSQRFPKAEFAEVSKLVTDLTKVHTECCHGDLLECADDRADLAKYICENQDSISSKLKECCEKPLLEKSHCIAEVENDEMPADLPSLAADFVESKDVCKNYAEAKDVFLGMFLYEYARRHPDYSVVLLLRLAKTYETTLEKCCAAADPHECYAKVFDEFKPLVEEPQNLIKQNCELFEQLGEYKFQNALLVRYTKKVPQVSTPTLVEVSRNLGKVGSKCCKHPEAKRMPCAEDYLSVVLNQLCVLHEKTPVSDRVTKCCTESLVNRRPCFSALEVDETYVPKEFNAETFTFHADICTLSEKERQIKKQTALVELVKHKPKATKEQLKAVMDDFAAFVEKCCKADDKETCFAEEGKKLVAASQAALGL
Source text: (§1) Biotinylated human TNFα/IL-23/serum albumin was captured in the microstructures of a Gyrolab Bioaffy 1000 CD, which contains columns of beads and is used as a molecular probe to capture free F027500069 from the equilibrated solution. The mixture of TNFα/IL-23/serum albumin and F027500069 (containing free TNFα/IL-23/serum albumin, free F027500069 and TNFα/IL-23/serum albumin—F027500069 complexes) was allowed to flow through the beads, and a small percentage of free F027500069 was captured, which is proportional to the free ISVD concentration. A fluorescently labelled anti-VHH antibody was then injected to label any captured F027500069 and after rinsing away excess of fluorescent probe, the change in fluorescence was determined. Fitting of the dilution series was done using Gyrolab Analysis software, where KD⁻ and receptor-controlled curves were analyzed to determine the KD value.

cyno serum albumin = target: T4, cyno serum albumin (cynomolgus monkey, UniProt A2V9Z4 25-608); assay: Gyrolab in-solution affinity, 2 h incubation
T4 construct: also called SA (cynomolgus monkey)
T4 sequence (A2V9Z4 25-608 limits assumed): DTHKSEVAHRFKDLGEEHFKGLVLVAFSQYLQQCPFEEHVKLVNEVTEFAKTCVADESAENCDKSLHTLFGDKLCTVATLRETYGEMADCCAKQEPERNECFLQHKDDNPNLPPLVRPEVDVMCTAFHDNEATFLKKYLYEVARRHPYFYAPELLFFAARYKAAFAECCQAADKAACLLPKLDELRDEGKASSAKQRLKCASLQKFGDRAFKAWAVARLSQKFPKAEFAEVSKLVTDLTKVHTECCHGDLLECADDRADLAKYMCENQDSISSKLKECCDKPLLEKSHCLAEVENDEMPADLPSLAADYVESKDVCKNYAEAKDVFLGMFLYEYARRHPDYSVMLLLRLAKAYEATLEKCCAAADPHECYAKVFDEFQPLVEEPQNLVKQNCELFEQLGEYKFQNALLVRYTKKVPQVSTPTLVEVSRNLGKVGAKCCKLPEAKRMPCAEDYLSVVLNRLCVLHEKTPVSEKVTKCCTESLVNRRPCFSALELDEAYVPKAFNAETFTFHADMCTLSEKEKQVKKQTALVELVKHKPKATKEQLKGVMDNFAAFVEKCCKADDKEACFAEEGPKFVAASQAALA
Source text: as §1

human TNFα [4] = target: T1, human TNFα; assay: Gyrolab in-solution affinity, 24 h incubation
Source text: as §1

cyno TNFα [5] = target: T2, cyno TNFα; assay: Gyrolab in-solution affinity, 24 h incubation
Source text: as §1

cyno IL-23 [6] = target: T5, cyno IL-23 (cynomolgus monkey); assay: Gyrolab in-solution affinity, 24 h incubation
T5 construct: also called recombinant IL-23 from cynomolgus monkey
Source text: as §1

human TNFα [7] = target: T1, human TNFα; assay: Gyrolab in-solution affinity, 48 h incubation
Source text: as §1

cyno TNFα [8] = target: T2, cyno TNFα; assay: Gyrolab in-solution affinity, 48 h incubation
Source text: as §1

cyno IL-23 [9] = target: T5, cyno IL-23; assay: Gyrolab in-solution affinity, 48 h incubation
Source text: as §1

human FASL = target: T6, human FASL (human, UniProt P48023 134-281, limits assumed); assay: SPR, target immobilized by amine coupling, F027500069 injected
T6 construct: also called huFASL
T6 sequence (looked up): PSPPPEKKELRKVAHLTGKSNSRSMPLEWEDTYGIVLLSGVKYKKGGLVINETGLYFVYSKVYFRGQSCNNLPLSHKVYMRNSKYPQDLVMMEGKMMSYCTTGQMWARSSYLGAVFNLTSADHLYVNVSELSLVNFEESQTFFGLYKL
Description: (§2) Absence of binding to TNFα and IL-23 related human cytokines was assessed via SPR. hIL-12 was tested, as it shares the p40 subunit with IL-23. TNF superfamily members human FASL, TNFβ, LIGHT, TL-1A, RANKL were tested as related cytokines for TNFα.
(§3) Next, 1 μM of F027500069 was injected for 2 minutes and allowed to dissociate for 900s at a flow rate of 45 μL/min. As running buffer 1×HBS-EP+ pH7.4 was used. As positive controls, 0.2 μM α-huIL-12 Ab and 0.5 μM α-huFASL Ab, 0.5 μM α-huTNFβ Ab, 0.5 μM α-huLIGHT Ab, 0.5 μM α-huTL-1A Ab and 0.5 μM α-huRANKL VHH were injected. Interaction between F027500069 and the positive controls with the immobilized targets was measured by detection of increases in […] which occurs as a result of mass changes on the chip upon binding.

human TNFβ = target: T7, human TNFβ (human, UniProt P01374 35-205); assay: as above
T7 construct: also called huTNFβ
T7 sequence (looked up): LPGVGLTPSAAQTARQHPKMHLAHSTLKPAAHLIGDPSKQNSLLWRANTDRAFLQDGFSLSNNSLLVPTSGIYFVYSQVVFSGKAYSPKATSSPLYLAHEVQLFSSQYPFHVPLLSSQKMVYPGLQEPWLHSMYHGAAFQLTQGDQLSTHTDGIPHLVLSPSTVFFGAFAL
Description: as §2, §3

human LIGHT = target: T8, human LIGHT (human, UniProt O43557 74-240, limits assumed); assay: as above
T8 construct: also called huLIGHT
T8 sequence (O43557 74-240 limits assumed): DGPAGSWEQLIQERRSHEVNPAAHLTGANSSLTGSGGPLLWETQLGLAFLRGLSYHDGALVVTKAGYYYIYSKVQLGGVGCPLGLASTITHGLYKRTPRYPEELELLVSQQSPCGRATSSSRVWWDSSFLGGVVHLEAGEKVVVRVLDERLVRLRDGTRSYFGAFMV
Description: as §2, §3

human TL-1A = target: T9, human TL-1A (human, UniProt O95150 72-251); assay: as above
T9 construct: also called huTL-1A
T9 sequence (looked up): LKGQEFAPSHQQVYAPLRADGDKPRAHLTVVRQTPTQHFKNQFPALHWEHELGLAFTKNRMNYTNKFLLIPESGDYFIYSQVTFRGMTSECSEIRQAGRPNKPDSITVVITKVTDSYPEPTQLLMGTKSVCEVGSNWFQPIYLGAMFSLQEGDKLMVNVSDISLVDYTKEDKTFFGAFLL
Description: as §2, §3

human RANKL = target: T10, human RANKL (human, UniProt O14788 140-317, limits assumed); assay: as above
T10 construct: also called huRANKL
T10 sequence (looked up): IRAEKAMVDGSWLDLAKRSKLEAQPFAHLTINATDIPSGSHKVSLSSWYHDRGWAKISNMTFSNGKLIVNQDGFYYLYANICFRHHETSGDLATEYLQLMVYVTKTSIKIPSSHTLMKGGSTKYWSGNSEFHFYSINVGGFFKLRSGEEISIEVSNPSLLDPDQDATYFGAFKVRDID
Description: as §2, §3

human IL-12 = target: T11, human IL-12 (human, UniProt P29459 23-219; P29460 23-328); assay: as above
T11 construct: also called hIL-12
T11 sequence (looked up) 1: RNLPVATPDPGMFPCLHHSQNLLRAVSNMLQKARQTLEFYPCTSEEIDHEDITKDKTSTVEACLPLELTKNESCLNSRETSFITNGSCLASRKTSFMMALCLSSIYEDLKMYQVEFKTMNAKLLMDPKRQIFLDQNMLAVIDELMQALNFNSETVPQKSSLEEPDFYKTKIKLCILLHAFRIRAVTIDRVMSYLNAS
T11 sequence (looked up) 2: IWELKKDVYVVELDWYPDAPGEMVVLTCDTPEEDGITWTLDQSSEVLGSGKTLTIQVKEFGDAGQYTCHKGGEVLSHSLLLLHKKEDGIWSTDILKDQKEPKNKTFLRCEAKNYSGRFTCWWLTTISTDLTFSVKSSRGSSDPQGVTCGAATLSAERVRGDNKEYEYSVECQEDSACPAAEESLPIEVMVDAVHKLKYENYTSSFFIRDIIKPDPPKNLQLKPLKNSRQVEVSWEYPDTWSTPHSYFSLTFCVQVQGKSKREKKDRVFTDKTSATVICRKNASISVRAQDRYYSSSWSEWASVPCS
Description: as §2, §3

human membrane TNFα [10] = target: T12, human membrane TNFα (human, UniProt P01375 1-233); assay: flow cytometry, human membrane TNFα expressing HEK293H cells, fixed cells
T12 construct: whole, on cells; also called membrane expressed TNFα
T12 sequence (P01375 whole entry): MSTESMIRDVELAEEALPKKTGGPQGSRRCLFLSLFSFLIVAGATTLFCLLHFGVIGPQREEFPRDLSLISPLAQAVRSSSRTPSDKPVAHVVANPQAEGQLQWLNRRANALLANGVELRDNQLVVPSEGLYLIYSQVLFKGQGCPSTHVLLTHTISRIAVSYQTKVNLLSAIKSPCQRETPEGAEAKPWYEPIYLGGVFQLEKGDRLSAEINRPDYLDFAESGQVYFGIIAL
Description: (§4) Briefly, cells were seeded at a density of 1×10⁴ cells/well and incubated with a dilution series of F027500069 starting from 100 nM up to 0.5 pM, for 1 hour at 4° C. In parallel, cells were fixed with 4% paraformaldehyde and 0.1% Glutaraldehyde in PBS, before seeding (to increase detection of membrane bound TNFα) and incubated with a dilution series of ISVD for 1 hour at 4° C. or for 24 hours at room temperature. Cells were washed 3 times and subsequently incubated with an anti-VHH mAb for 30 min at 4° C., washed again, and incubated for 30 min at 4° C. with a goat anti-mouse PE labelled antibody. Samples were washed and resuspended in FACS Buffer (D-PBS with 10% FBS and 0.05% sodium azide supplemented with 5 nM TOPRO3). Cell suspensions were then analysed on an iQuescreener. EC50 values were calculated using GraphPad Prism.

human membrane TNFα [11] = target: T12, human membrane TNFα; assay: flow cytometry, human membrane TNFα expressing HEK293H cells, fixed cells, 1 h at 4 °C
Description: as §4

human membrane TNFα [12] = target: T12, human membrane TNFα; assay: flow cytometry, human membrane TNFα expressing HEK293H cells, viable cells, 1 h at 4 °C
Description: as §4

human membrane TNFα [13] = target: T12, human membrane TNFα; assay: flow cytometry, human membrane TNFα expressing HEK293H cells, fixed cells, 24 h at room temperature
Description: as §4

OX40L = target: T13, OX40L (human, UniProt P23510); assay: SPR (ProteOn XPR36): 100 nM F027500069 captured on immobilized HSA, then 100 nM hOX40L injected for 2 min, alone or mixed with 100 nM IL-23 or TNFα, followed by 600 s dissociation
T13 construct: soluble recombinant protein; also called hOX40L
T13 sequence (ligand chain, looked up): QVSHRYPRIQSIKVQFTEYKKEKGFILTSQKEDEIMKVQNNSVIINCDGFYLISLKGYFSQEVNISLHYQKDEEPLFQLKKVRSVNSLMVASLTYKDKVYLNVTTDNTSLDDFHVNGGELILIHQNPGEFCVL
Description: A ProteOn XPR36 instalment was used to determine whether F027500069 can bind simultaneously to hTNFα and hIL-23. To this end HSA was immobilized on a GLC ProteOn Sensor chip via amine coupling. 100 nM of F027500069 was injected for 2 min at 10 μl/min over the HSA surface in order to capture the ISVD via the ALB23002 building block. Subsequently either 100 nM of hIL-23, hTNFα or hOX40L were injected or mixtures of 100 nM IL-23+100 nM TNFα, 100 nM IL-23+100 nM OX40L or 100 nM TNFα+[…], at a flow rate of 10 μl/min for 2 min followed by a subsequent 600 seconds dissociation step. The HSA surfaces were regenerated with a 2-minute injection of HCl (100 mM) at 45 μl/min.

T1 sequence (P01375 77-233 limits assumed): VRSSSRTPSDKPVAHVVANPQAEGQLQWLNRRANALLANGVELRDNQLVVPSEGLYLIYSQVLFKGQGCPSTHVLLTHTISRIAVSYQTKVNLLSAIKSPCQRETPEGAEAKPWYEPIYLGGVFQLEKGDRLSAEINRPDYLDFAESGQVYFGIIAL
T2 sequence (P79337 77-233 limits assumed): as the sequence (P01375 77-233 limits assumed) above, with L37V, R44T, T72N, R138L counted along it

B1: F027500069 (VHH)
chain: DVQLVESGGGVVQPGGSLRLSCTASGFTFSTADMGWFRQAPGKGREFVARISGIDGTTYYDEPVKGRFTISRDNSKNTVYLQMNSLRPEDTALYYCRSPRYADQWSAYDYWGQGTLVTVSSGGGGSGGGSEVQLVESGGGVVQPGGSLRLSCAASGRIFSLPASGNIFNLLTIAWYRQAPGKQRELVATIESGSRTNYADSVKGRFTISRDNSKKTVYLQMNSLRPEDTALYYCQTSGSGSPNFWGQGTLVTVSSGGGGSGGGSEVQLVESGGGVVQPGGSLRLSCAASGFTFRSFGMSWVRQAPGKGPEWVSSISGSGSDTLYADSVKGRFTISRDNSKNTLYLQMNSLRPEDTALYYCTIGGSLSRSSQGTLVTVSSGGGGSGGGSEVQLVESGGGVVQPGGSLRLSCAASGRTLSSYAMGWFRQAPGKEREFVARISQGGTAIYYADSVKGRFTISRDNSKNTVYLQMNSLRPEDTALYYCAKDPSPYYRGSAYLLSGSYDSWGQGTLVKVSSA
notes: produced in Pichia pastoris; also called F02750069; ISVD construct F027500069
NFkB assay IC50 (M); Glo Response HEK293_NFkB-NLucP reporter assay, 25 pM human TNFα (human TNFα [1]): 3.88e-11 M | NFkB assay IC50 (M); Glo Response HEK293_NFkB-NLucP reporter assay, 70 pM cyno TNFα (cyno TNFα [2]): 1.28e-10 M | IL-23 reporter assay IC50 (M); Glo Response HEK293_human IL-23R/IL-12Rb1-Luc2P, 40 pM cyno IL-23 (cyno IL-23 [3]): 3.23e-10 M | Mouse splenocyte assay IC50 (M); IL-23-induced mIL-22 production, 36 pM cyno IL-23 (cyno IL-23 [3]): 3.07e-11 M | Kd (human serum albumin): 5.9 nM | Kd (cyno serum albumin): 10.8 nM | Kd (human TNFα [4]): 3.23 pM | Kd (cyno TNFα [5]): 0.0275 nM | Kd (cyno IL-23 [6]): 0.0335 nM | Kd (human TNFα [7]): 3.39 pM | Kd (cyno TNFα [8]): 0.0186 nM | Kd (cyno IL-23 [9]): 0.0512 nM | binding result (human FASL): no binding (tested: 1 µM) | binding result (human TNFβ): no binding (tested: 1 µM) | binding result (human LIGHT): no binding (tested: 1 µM) | binding result (human TL-1A): no binding (tested: 1 µM) | binding result (human RANKL): no binding (tested: 1 µM) | binding result (human IL-12): no binding (tested: 1 µM) | fold improvement of the EC50 (24 hours against 1 hour incubation) (human membrane TNFα [10]): 6.6 fold | EC50 (human membrane TNFα [11]): 0.811 nM | EC50 (human membrane TNFα [12]): 0.693 nM | EC50 (human membrane TNFα [13]): 0.122 nM | binding result (OX40L): no binding (tested: 100 nM)
